Data from the nanobody polyreactivity screen of Harvey et al. (2022).

Assay: yeast display, Sf9 membrane polyspecificity reagent, FACS + sequencing; frameworks hold sequencing errors
Outline: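 Nanobodies came from a synthetic yeast display library in Saccharomyces cerevisiae BJ5465, induced with galactose for 36–48 hours and stained for 1 hour at 4 °C with 10% biotinylated, detergent-solubilized Sf9 membrane reagent. Cells were enriched on streptavidin microbeads and then FACS-sorted, with low and high (top ~1%) gates set on anti-HA fluorescence for expression and streptavidin fluorescence for reagent binding. Each polyreactivity label reflects the gate a clone came from. Genes were amplified by colony PCR, sequenced by MiSeq 2 × 250 and filtered by CDR length.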
For “QVQLVESGGGLVQAGGSLLLSCAASGLTFRRYNMGWYRQAPGKERELVAAISYSGGSTYYADSVKGRFTISRDNAKNTVYLQMNSLKPEDTAVYYCNDRYARVKQYGYWGQGTQVTVSS”, the “polyreactivity (PSR sort gate)” value was “low polyreactivity”. With “QVQLVESGGGLVQAGGSLLLSCAASGRIFQFYAMGWYRQAPGKERELVAGITTSGGSTYYADSVKGRFTISRDTAKNTVYLQMNSLKPEDTAVYYCAKRYYSSQFSKFGYWGQGSQVTVSS” the “polyreactivity (PSR sort gate)” value was “high polyreactivity”. In the case of “QVQLVESGGGLVQAGGSLLLSCAASGRIFYGNAMGWYRQAPGKERELVAPISSGTSTNYADSVKGRFTISRDNGKNTVYLQMNSLKPEDTAVYYCAAGSYSRYLYSLYFDFDYWGQGTQVTVSS”, the “polyreactivity (PSR sort gate)” value is reported as “low polyreactivity”. In the case of “QVQLVESGGGLVQAGGSLLLSCAASGRIIGYYAMGLYRQAPVKERELVAAISRRGGSTYYADSVKGRFTISRDNAKNTVYLQINSLKPEDTAVYYCNADRVLTRPRYDYWGQGTQVTVSS”, the “polyreactivity (PSR sort gate)” value is reported as “low polyreactivity”. With “QVQLVESGGGLVQAGGSLLLSCAASGRTFAPYAMGWYRQAPGKERELVAAISSGGGNTYYADSVKGRFTISRDNAKNTVYLQMNSMKPEDTAVYYCAKPRARQDFDYWGQGTKVTVSS” the “polyreactivity (PSR sort gate)” value was “high polyreactivity”. With “QVQLVESGGGLVQAGGSLLLSCAASGRTFWPYAMGWYRQAPGKERELVAAITSDGSTTYADSVTGRFTISRDNAKNTVYLQMNSLTPEDTAVYFCAAYGYYYYQTIPMDYWGQGTQVTVSS” the “polyreactivity (PSR sort gate)” value was “low polyreactivity”. In the case of “QVQLVESGGGLVQAGGSLLLSCAASGSIFGWYVMGWYRQEPGKERELVAAISSVGSTYYADSVKGRFTISRDNAKNTVYLQMNSLKPEDTAVYYCATDSNPKWDYALDSWGQGTQVTVSS”, the “polyreactivity (PSR sort gate)” value is reported as “low polyreactivity”. For “QVQLVESGGGLVQAGGSLLLSCAASGSIFYSNAMAWYRQAPGKERELVATITWSGGRTYYADSVKGRFTISRDNAKNTVYLQMNSLKPDDTAVYYCAAVSIYWGQGTQVTVSS”, the “polyreactivity (PSR sort gate)” value was “low polyreactivity”. In the case of “QVQLVESGGGLVQAGGSLLLSCAASGSILSKNAMGWYRQAPGKDRELVAAITWSGGSTYYADSVKGRFTISRDNAKNTVYLQMNSLKPEDTADYSCAADLDWSPQFGLPYDYWGQGTQVTVSS”, the “polyreactivity (PSR sort gate)” value is reported as “low polyreactivity”. With “QVQLVESGGGLVQAGGSLLLSCAASGSTFYYNAMGWYRQATGKERELVARISRSGGSTYADSVKGRFTISRDNAKNTVYLQMNSLKPEDTAVYYCNADAYGTPEFTSYAVRYDYWGQGTQVTVSS” the “polyreactivity (PSR sort gate)” value was “low polyreactivity”. With “QVQLVESGGGLVQAGGSLLLSCAASGSTLDPNVMGWYRPAPGKERELVAAITSGGSTYYADSVKGRFTISRDNAKNTVYLQMNSLKPEDTAVYYCNKDKGWLAHSRIWLWYDYWGQGTQVTVSS” the “polyreactivity (PSR sort gate)” value was “low polyreactivity”. For “QVQLVESGGGLVQAGGSLLLSCAASGSTSQPYAMGWYRQAPGKERELVASITNGGITYYADSVKGRFTISRDNAKNTVYLQLNSLKPEVTAVYYCNADNVFEGYDRRSARACYRYYYWGQGTQVTVSS”, the “polyreactivity (PSR sort gate)” value was “low polyreactivity”. With “QVQLVESGGGLVQAGGSLLLSCAPSGSTIPSYAMGWYRQSPGKERELVASITYSDGTTRYADSVKGRFTISRDNAKNTVYLQMNSLKPEDTAVYYCNAVYYREGMDYWGQGTQVTVSS” the “polyreactivity (PSR sort gate)” value was “low polyreactivity”. For “QVQLVESGGGLVQAGGSLLLSSAASGRTFWMYAMGWNRQAPGKESELVAGITWRGGSTYYADSVKGRFTISRDIAKNTVYLQMNSQKPEDTAVYYFAAEFWVSRSIWVYYYWGQGTQVTVSS”, the “polyreactivity (PSR sort gate)” value was “high polyreactivity”. For “QVQLVESGGGLVQAGGSLPLSCAASGFIFGTNTMGWYRQAPGKEREMVAAITSVGSTNYADSVKGRFTISRDNAKNTVYLQMNSLKPEDTAVYYCPATLYYQYGGDYWGQGTQVTVSS”, the “polyreactivity (PSR sort gate)” value was “low polyreactivity”. In the case of “QVQLVESGGGLVQAGGSLPLSCAASGGTFRGNAMGWYRQAPGKERELVAAITGSGGSTYYADSVTGRFTISRDNAKNTVYLQMNSLKPEDSAVYYCAVDRASRRTYNQYGYWGQGTQVTVSS”, the “polyreactivity (PSR sort gate)” value is reported as “high polyreactivity”. In the case of “QVQLVESGGGLVQAGGSLPLSCAASGITIYGYAMGWYRQAPGKESELVAAMSTSGGRTYYADSVKGRFTISRDNAKNTVYLQMNSMKPEDTAVYYCAVAPYKGTWDSRSSWRRRAYWGQGTQVTVSS”, the “polyreactivity (PSR sort gate)” value is reported as “high polyreactivity”. With “QVQLVESGGGLVQAGGSLPLSCAASGRIFKDNAMGWYRQAPGNEREMVAAISSGASTSYADSVKGRFTISRDYAKNTVYLQRNSLKPEDTAVYYCNGGGDLYYPGWLFDYWGQGTQVTVSS” the “polyreactivity (PSR sort gate)” value was “low polyreactivity”. With “QVQLVESGGGLVQAGGSLPLSCAASGRIIDRYAMGWSRQATGKERDLVASISSGGSTYYADSVKGRFTISRDNAKNTVYLQMNSLKPEDTAVYYCNAEARSRRYRYDYWGQGTQVTVSS” the “polyreactivity (PSR sort gate)” value was “high polyreactivity”. For “QVQLVESGGGLVQAGGSLPLSCAASGRTFDVYPMGWYRQAPGKERELVAAINGGGSTYYADSVKGRFTISRDNAKNTVYLQINSLKPEDTALYYCAAKFRAGRSSYYWGQGTQVTVSS”, the “polyreactivity (PSR sort gate)” value was “high polyreactivity”. In the case of “QVQLVESGGGLVQAGGSLPLSCAASGRTFNFYAMGWYRQAPGKERELVATISGGVSTYYADSVKGPFTISRDNAKITVYLQMNSLKPEDTAVYYCAKDSCYPQWDLDYWGQGTQVTVSS”, the “polyreactivity (PSR sort gate)” value is reported as “high polyreactivity”. In the case of “QVQLVESGGGLVQAGGSLPLSCAASGRTFRRYGMGWYSNAHGKERELVAGISGYGTTNYADSVKGRFTISRDNAKNTVYLQMNSLKPEDSAVYYCAAGRPYYYTYSGLYYWGQGTQVTVSS”, the “polyreactivity (PSR sort gate)” value is reported as “high polyreactivity”. In the case of “QVQLVESGGGLVQAGGSLPLSCAASGRTFRSNAMGWYRQAPGKERELVAAISWSGGSTYYADSVKGRFTISRDNAKTSVYFQLNSLKPEDTAVYYCAAYYYTRFEWGQGTQVTVSS”, the “polyreactivity (PSR sort gate)” value is reported as “high polyreactivity”. In the case of “QVQLVESGGGLVQAGGSLPLSCAASGSIFSKYTMGWYRQAPGKERELDAAISRAGSTYYADSVKGRFTISRDNAKNSVYLQMNSLKPEDTAVYYCNARYRGVYPLIGIRRDYYYWGQGTQVTVSS”, the “polyreactivity (PSR sort gate)” value is reported as “high polyreactivity”. In the case of “QVQLVESGGGLVQAGGSLPLSCAASGSILYFYAMGWYRQSPGKERELVAAISWTGGSTYYADSVKGRFTISRDNAKNTVYLQMNSLKPEDTAVYYCAAELWYEGYDYWGQGTQVTVSS”, the “polyreactivity (PSR sort gate)” value is reported as “high polyreactivity”. With “QVQLVESGGGLVQAGGSLPLSCAASGSIVTDNAMGWYRQAPGKERELVAANTSSGNTNYADSVKGRFTISRDNAKNTVDLQMKSLKPEDTAVYYCAADSYYTHWTDWLPVGEDYWGQVTQVTVSS” the “polyreactivity (PSR sort gate)” value was “low polyreactivity”. For “QVQLVESGGGLVQAGGSLPLSSAASGITLRYYAMRWYRQAPGKERELVAAMSGRGGGTYYADSVKGRFTISRDNAKNTVYLQMNSLKPEDTAVYYCNAVGQQQVEYEYWGQGTQVTVSS”, the “polyreactivity (PSR sort gate)” value was “high polyreactivity”. For “QVQLVESGGGLVQAGGSLRCSCAASGFTFYSYAMGWYRQAPGKERELVAAITESGGSTYYADSVKGRFTISRDNAKNTVYLQMNSLKPEDTAVYYCAAQFAQRPQYYYFVWYDYWGQGTQVTVSS”, the “polyreactivity (PSR sort gate)” value was “low polyreactivity”. With “QVQLVESGGGLVQAGGSLRCSCSASGGIFVNYAMGWSRPAPGKETELVAAISRSGGSTYYADSVKGRFTISRDNANNTVYLQMNSLKPEDTAVYYCAKRRVYYGSRYHYWGEGTQVTVSS” the “polyreactivity (PSR sort gate)” value was “high polyreactivity”. With “QVQLVESGGGLVQAGGSLRFSCAASGFTFRKNAMGWYRQAPGKERELVAAISRRGGRTYYADSVKGRFTISRDNAKNTVYLQMNSLKPEDTAVYYCNADEYGGSTGRKGRYNYWGQGTQVTVSS” the “polyreactivity (PSR sort gate)” value was “low polyreactivity”. For “QVQLVESGGGLVQAGGSLRFSCAASGFTFVYNAMGWYRQAPGKERELVARISVSGGSTYYADSVKGRFTISRDNAKNTVYLQMNSLKPEDTAVYYCAAELSAPQPDYQQKVDYYYWGQGTQVTVSS”, the “polyreactivity (PSR sort gate)” value was “low polyreactivity”. With “QVQLVESGGGLVQAGGSLRFSCAASGFTFYLYTMGWYRQAPGKDRELVAAINYSGGTTYYADSVKGRFTISRDNAKNTVYLQMNSLKPEDTAVYYCAATVGYSYNPRKNYYWGQGTQVTVSS” the “polyreactivity (PSR sort gate)” value was “low polyreactivity”. In the case of “QVQLVESGGGLVQAGGSLRFSCAASGITFRRYAMGWYRQAPGKERELVASISRGGSTYYADSVKGRFTISRDNAKNTVYLQMNSLKPEDTAVYYCAADVAWRYDYWGQGTQVNVSS”, the “polyreactivity (PSR sort gate)” value is reported as “high polyreactivity”. For “QVQLVESGGGLVQAGGSLRFSCAASGNILPSNAMGWYRQAPGKERELVAVINSSGNTNYADSVKGRFTISRDNAKKTVYLQMNSLKPEDTAVYYCVIWFRYDRARKLYYWGQGTQVTVSS”, the “polyreactivity (PSR sort gate)” value was “high polyreactivity”. In the case of “QVQLVESGGGLVQAGGSLRFSCAASGRIFGTYAMGWYRQAPGKERELVAAITQSGGRTYYADSVKGRFTISRDNAKNTVYLQMNSLKPEDTAVYDCNKVTYRGIGLGYDYWGQGTQVTVSS”, the “polyreactivity (PSR sort gate)” value is reported as “high polyreactivity”. In the case of “QVQLVESGGGLVQAGGSLRFSCAASGRIFRYYAMGWYRQAPGKERELVAGIRTSGGRTYADSVKGRFTISRDNAKNTVYLQMNSLKPEDTAVYYCAAGRRTLSMYYWGQGTQVTVSS”, the “polyreactivity (PSR sort gate)” value is reported as “high polyreactivity”. With “QVQLVESGGGLVQAGGSLRFSCAASGRIFTFYAMGWYRQAPGKERELVAAITSGGSTYYADSVKGRFTISRDNAKNTVYLQMNSLKPEDTAVYYCNALHHTQHDYWGQGTQVTVSS” the “polyreactivity (PSR sort gate)” value was “low polyreactivity”. With “QVQLVESGGGLVQAGGSLRFSCAASGRIFVNYAMGWYRQAPGKEREFVAAITSSGGSTYYADSVKGRFTISRDNAKNTVYLQMNSLKPEDTAVYYCAARGSLGGWGLRYYWGQGTQVTVSS” the “polyreactivity (PSR sort gate)” value was “high polyreactivity”. In the case of “QVQLVESGGGLVQAGGSLRFSCAASGRIYYNAMGWYRQAPGKERELVAAISGSGTRTYYADSVKGRFTISRDNAKNTVFLQMNSLKPEDTAVYYCNAKFFLAATTRYYYWGQGTQVTVSS”, the “polyreactivity (PSR sort gate)” value is reported as “high polyreactivity”. With “QVQLVESGGGLVQAGGSLRFSCAASGRTFPSKTMGLYRQAPGKERELVAAISKNGGSTYYADSVKGRFTISRDNAKNTVYLQMNSLKPEDTAVYYCNRVRYPRVDYWGQGTQVTVSS” the “polyreactivity (PSR sort gate)” value was “high polyreactivity”. With “QVQLVESGGGLVQAGGSLRFSCAASGRTFQYYAMGWSRQAPGKERELVAAISQDGGSTYYADSVKGRFTISRDNAKNTVYLQMNSLKPEDTAVYYCAAEVWRSYGYWGQGTQVTVSS” the “polyreactivity (PSR sort gate)” value was “low polyreactivity”. In the case of “QVQLVESGGGLVQAGGSLRFSCAASGSIFDSYAMGWYRHAPGKERELVAAITWSGGITFYADSVKGRYTISRDNAKNTVYLQMNSLKPEDTAVYYCATARSYVGVGGTFVGLYDYWGQGTQVTVSS”, the “polyreactivity (PSR sort gate)” value is reported as “low polyreactivity”. With “QVQLVESGGGLVQAGGSLRFSCAASGSIFGKNAIGWYRQAPGKERELVAAITRSGGSTYYADSVKGRFTISRDNAKNTVYLQMNSLKPEDTAVYYCNAVRVRVTSHRIRQLDYGYWGQGTQVTVSS” the “polyreactivity (PSR sort gate)” value was “low polyreactivity”.
